From PMC11931385, “Structural and functional analysis of cancer-associated missense variants in the retinoblastoma protein pocket domain” (The Journal of Biological Chemistry, 2025)
No end group written: not given here. TMR = tetramethyl rhodamine dye

What was measured:
Assay in all cases: fluorescence polarisation; 25 °C; unlabeled Rb^P titrated against 1.5 nM TMR-E2F1^TD or 7.5 nM TMR-E7^LxCxE; 25 mM Tris pH 8.0, 200 mM NaCl, 1 mM DTT, 0.1% Tween-20; 2 min incubation; quadratic fit; apparent Kd for the variants, Kd for WT
Settings in all cases: both partners purified
Rb^P S534R = biological target: T1, Rb^P S534R (human, UniProt P06400 380-788, S534R)
T1 construct: also called variant 23
T1 sequence (looked up): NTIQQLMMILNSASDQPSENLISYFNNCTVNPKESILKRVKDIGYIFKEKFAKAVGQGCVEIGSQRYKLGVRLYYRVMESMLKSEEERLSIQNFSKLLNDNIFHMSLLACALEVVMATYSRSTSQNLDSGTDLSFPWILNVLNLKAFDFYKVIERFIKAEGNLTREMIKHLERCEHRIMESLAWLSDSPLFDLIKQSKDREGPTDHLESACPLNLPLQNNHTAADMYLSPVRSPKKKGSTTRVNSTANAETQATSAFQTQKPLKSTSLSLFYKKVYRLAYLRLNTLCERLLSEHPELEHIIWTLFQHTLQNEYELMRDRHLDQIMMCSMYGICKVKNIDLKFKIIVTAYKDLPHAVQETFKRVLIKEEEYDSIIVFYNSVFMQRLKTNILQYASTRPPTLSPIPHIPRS

Rb^P R656Q = biological target: T2, Rb^P R656Q (human, UniProt P06400 380-788, R656Q)
T2 construct: also called variant 48
T2 sequence (looked up): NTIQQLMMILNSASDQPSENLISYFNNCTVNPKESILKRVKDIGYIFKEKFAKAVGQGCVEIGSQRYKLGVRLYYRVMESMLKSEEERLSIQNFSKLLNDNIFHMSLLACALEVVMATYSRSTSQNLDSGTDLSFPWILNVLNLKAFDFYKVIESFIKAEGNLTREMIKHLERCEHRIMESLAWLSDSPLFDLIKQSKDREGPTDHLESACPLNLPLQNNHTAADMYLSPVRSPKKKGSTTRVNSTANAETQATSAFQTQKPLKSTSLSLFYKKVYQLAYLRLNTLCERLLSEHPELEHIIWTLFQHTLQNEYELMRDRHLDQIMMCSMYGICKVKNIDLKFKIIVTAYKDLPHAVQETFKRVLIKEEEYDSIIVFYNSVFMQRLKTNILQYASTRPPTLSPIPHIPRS

Rb^P R741S = biological target: T3, Rb^P R741S (human, UniProt P06400 380-788, R741S)
T3 construct: also called variant 70
T3 sequence (looked up): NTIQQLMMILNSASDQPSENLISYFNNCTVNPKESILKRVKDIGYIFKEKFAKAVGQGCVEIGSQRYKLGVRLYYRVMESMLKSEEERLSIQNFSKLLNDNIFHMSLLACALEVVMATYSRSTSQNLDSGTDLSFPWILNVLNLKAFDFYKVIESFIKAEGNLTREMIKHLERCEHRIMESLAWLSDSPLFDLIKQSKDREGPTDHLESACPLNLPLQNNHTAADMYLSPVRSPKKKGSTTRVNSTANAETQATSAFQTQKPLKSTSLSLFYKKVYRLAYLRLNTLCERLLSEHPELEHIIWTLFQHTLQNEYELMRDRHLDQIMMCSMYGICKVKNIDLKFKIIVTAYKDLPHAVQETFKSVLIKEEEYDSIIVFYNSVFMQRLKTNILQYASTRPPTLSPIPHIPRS

Rb^P Q504E = biological target: T4, Rb^P Q504E (human, UniProt P06400 380-788, Q504E)
T4 construct: also called variant 19
T4 sequence (looked up): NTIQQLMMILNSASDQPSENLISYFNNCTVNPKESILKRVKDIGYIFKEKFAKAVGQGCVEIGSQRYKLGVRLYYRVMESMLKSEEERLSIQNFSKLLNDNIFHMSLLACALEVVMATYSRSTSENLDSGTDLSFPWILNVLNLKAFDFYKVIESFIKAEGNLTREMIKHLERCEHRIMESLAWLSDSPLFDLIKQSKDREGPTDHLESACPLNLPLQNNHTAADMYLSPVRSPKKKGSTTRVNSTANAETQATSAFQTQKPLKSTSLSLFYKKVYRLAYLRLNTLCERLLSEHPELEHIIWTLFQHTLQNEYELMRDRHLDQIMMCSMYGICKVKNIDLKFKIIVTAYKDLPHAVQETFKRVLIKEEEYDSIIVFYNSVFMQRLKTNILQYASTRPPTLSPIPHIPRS

Rb^P E693A = biological target: T5, Rb^P E693A (human, UniProt P06400 380-788, E693A)
T5 construct: also called variant 60
T5 sequence (looked up): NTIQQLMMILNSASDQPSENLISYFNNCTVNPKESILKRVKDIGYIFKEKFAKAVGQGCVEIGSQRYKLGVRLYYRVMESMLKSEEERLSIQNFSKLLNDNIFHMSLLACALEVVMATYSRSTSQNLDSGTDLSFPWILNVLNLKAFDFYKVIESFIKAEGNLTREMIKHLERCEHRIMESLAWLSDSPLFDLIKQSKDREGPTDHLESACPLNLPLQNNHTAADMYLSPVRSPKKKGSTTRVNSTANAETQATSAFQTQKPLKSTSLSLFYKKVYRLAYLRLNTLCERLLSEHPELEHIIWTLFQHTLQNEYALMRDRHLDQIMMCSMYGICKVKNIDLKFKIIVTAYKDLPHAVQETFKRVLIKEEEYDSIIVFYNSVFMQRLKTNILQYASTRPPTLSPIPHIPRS

Binder | Kd (Rb^P S534R) | Kd (Rb^P R656Q) | Kd (Rb^P R741S) | Kd (Rb^P Q504E) | Kd (Rb^P E693A)
{TMR}-GEGIRDLFDCDFGDLTPLD (also called E2F^TD; source: synthetic peptide, bought: GenScript) [TMR-E2F1^TD, peptide of the E2F1 transactivation domain] | 9280 nM | 183 nM | 32 nM | 18 nM | 42 nM
DLYCYEQLN (also: TMR label, position not given here, source: synthetic peptide, bought: GenScript) [TMR-E7^LxCxE, LxCxE peptide of the E7 oncoprotein from HPV] | 4 nM | 6 nM | 16 nM | 5 nM | 7 nM
